Columns and labels:
NK cells = assay: Functional assay of NK cells in PBMC treated or not overnight with IL12; type: cell-based, human; settings: PBMC of traumatic-brain injured patients day 1 and day 7 and healthy controls; overnight IL-12; 5-hours functional assay; FIG. 18
Text: (i) spontaneous lysis with and without O/N treatment with IL-12 of PBMC of traumatic-brain injured patients on days 1 (d1) (n=5) and day 7(d7) (n=5) and healthy controls (HC) (n=5) and (ii) reverse ADCC with and without O/N treatment with IL-12 of PBMC of TBI on days 1 (n=6) and 7 (n=6) and HC (n=4)
EDTA-anticoagulated blood samples were withdrawn seven days after primary infection in septic patients (IBIS sepsis), or at day 1 and day 7 ICU admission in trauma patients. Peripheral blood mononuclear cells (PBMCs) were isolated by centrifugation, frozen in liquid nitrogen in a 10% DMSO solution and stored until analysis.

[1] = test system: lung DC, macrophages and NK cells; assay: Intracellular staining of DC, macrophages and lymphocytes for cytokines during secondary pneumonia; type: in vivo, mice; settings: IL-12 100 ng i.p.; secondary pneumonia 7 days after primary E. coli pneumonia; FIG. 11e
Protocol: For intracellular staining of cytokines in DC or lymphocytes, cell suspensions were obtained by mechanical and collagenase digestion of lungs collected 16 hours after injection of E. coli. Cells were cultured 4 hours in complete media with Golgi Plug, washed twice and then stained for surface markers. Fixation and permeabilization was performed following manufacturer instructions (BD Cytofix/Cytoperm kit, BD Bioscience). Anti-cytokine antibody was incubated overnight at 4° C. Cells were washed twice before FACS analysis.
Mice were treated with IL-12 (100 ng i.p., Abcam) concomitantly to the induction of the secondary pneumonia. Anti-TGFβ monoclonal antibody (1B11, 44 μg i.p. every 3 days) or isotype control IgG1 monoclonal antibody (MG1-45, Biolegend) injections were performed 3 and 6 days after primary pneumonia. TGF-β (1 μg i.p., Thermofisher) was injected once 6 days after primary pneumonia in DT-treated CD11c-DTR chimeric mice

E. coli, S. aureus = assay: Bacterial pneumonia in mice cured from infection or from trauma-hemorrhage (FIG. 17); type: in vivo
Escherichia coli = assay: Secondary E. coli pneumonia in infection-cured mice, c.f.u. in bronchoalveolar lavage; type: in vivo; settings: IL-12 100 ng i.p. concurrent with induction of secondary pneumonia; c.f.u. from BAL 16 hours after E. coli; FIG. 4g

B1: IL-12: heterodimeric cytokine encoded by IL-12A (p35) and IL-12B (p40); Abcam, 100 ng i.p. (protein, UniProt P43431 23-215; P43432 23-335, looked up)
Interleukin-12 subunit alpha: RVIPVSGPARCLSQSRNLLKTTDDMVKTAREKLKHYSCTAEDIDHEDITRDQTSTLKTCLPLELHKNESCLATRETSSTTRGSCLPPQKTSLMMTLCLGSIYEDLKMYQTEFQAINAALQNHNHQQIILDKGMLVAIDELMQSLNHNGETLRQKPPVGEADPYRVKMKLCILLHAFSTRVVTINRVMGYLSSA
Interleukin-12 subunit beta: MWELEKDVYVVEVDWTPDAPGETVNLTCDTPEEDDITWTSDQRHGVIGSGKTLTITVKEFLDAGQYTCHKGGETLSHSHLLLHKKENGIWSTEILKNFKNKTFLKCEAPNYSGRFTCSWLVQRNMDLKFNIKSSSSSPDSRAVTCGMASLSAEKVTLDQRDYEKYSVSCQEDVTCPTAEETLPIELALEARQQNKYENYSTSFFIRDIIKPDPPKNLQMKPLKNSQVEVSWEYPDSWSTPHSYFSLKFFVRIQRKKEKMKETEEGCNQKGAFLVEKTSTEVQCKGGNVCVQAQDRYYNSSCSKWACVPCRVRS
responsiveness of NK cells to IL-12 (IFNγ+ CD107a+ NK cells) (NK cells): remain responsive | IFN-γ production by NK cells during secondary pneumonia [1]: restored | clinical recovery during bacterial pneumonia (E. coli, S. aureus): enhances clinical recovery | innate immune response during bacterial pneumonia (E. coli, S. aureus): restores innate immune response | bacterial clearance during secondary pneumonia (Escherichia coli): enhanced bacterial clearance

Source: patent US20200147177A1, “INTERLEUKIN 12 (IL12) OR DERIVATIVE THEREOF FOR USE IN THE TREATMENT OF SECONDARY DISEASE” (priority 2017, published 2020)
